Data as given in patent publication US11046782B2, “Methods for treatment and diagnosis of cancer by targeting glycoprotein A repetitions predominant (GARP) and for providing effective immunotherapy alone or in combination” (MUSC FOUNDATION FOR RESEARCH DEVELOPMENT, priority 2016, dated 2021).
Blank lines part the entries; values can stand above or below the molecule they belong to.

Tests used:
[1] = system: B16-F1 melanomas; assay: B16-F1 melanoma model, adoptive T cell therapy with anti-platelet agents; type: in vivo, C57BL/6 mice; details: no adoptive T cells; Cy on day 7
Text: To establish the clinical relevance of the suppressive effect of platelets on anti-tumor immunity, the impact of platelets on immunotherapy was addressed pharmacologically. B16-F1 melanomas were established in C57BL/6 mice after subcutaneous injection on day 0, followed by lymphodepletion with Cy on day 7, and infusion of ex vivo primed Pmel cells on day 8, along with anti-platelet (AP) agents: aspirin and clopidogrel. Aspirin and clopidogrel inhibit platelet activation by blocking cycloxyenase and ADP receptors, respectively.
B16-F1 tumor model and adoptive T cell therapy (ACT). […] (B16 EV, and B16 GARP-Fc; n=5-7 each group) of 6-8-week old female C57BL/6J mice were inoculated s.q. in the right flank using 2.5×10^5 cells and, when specified, treated with one intra-peritoneal injection of CY (4 mg/mouse) a day prior to adoptive T cell therapy. […] Primary tumor growth was monitored 3 times per week with vernier calipers. Peripheral adoptively transferred Pmel cells were monitored at 2, 3, 4, and 5 weeks after ACT. Ex-vivo Pmel IFN-γ production was assess stimulating Pmel cells for 3 h in presence of hgp100 and brefeldin A (BFA) at 37° C. and analyzed by flow cytometry.

[2] = system: human GARP-expressing 4T1 tumor cells; assay: 4T1-huGARP orthotopic mammary tumor model, GARP antibody therapy; type: in vivo, BALB/c mice; details: for primary tumor growth: antibody 0.1 mg/mouse i.p. three times per week, with or without a single dose of CY, vs isotype control
Experimental: 4T1 Tumor model and GARP antibody therapy. Female BALB/c mice, 6-8-week old were inoculated in the fourth mammary fat pad subcutaneously (s.q.) with 5×10^5 cells (4T1 EV, 4T1 GARP, or 4T1 GARP-Fc). Tumor growth was monitored three times per week with a digital vernier caliper and tumor volume was calculated using the following formula: tumor volume (mm^3)=[(width)^2×length][…]. In GARP antibody therapy experiments, beginning at 3 days post-tumor inoculation, anti-GARP antibody or polyclonal isotype-controlled antibody (0.1 mg/mouse in 0.1 mL PBS; three times per week) were administered intraperitoneally (i.p.) into mice. […] At end-point, mice were sacrificed and the primary tumor, draining LNs, spleen, lungs and liver were isolated. Tumor infiltrated lymphocytes were isolated by Collagenase D (Sigma) digestion followed by Histopaque-1083 (Sigma) mediated density separation.

[3] = target: T1, mouse GARP (Mus musculus, UniProt G3XA59); assay: Cross-reactivity of anti-GARP mAb clones against mouse GARP; type: binding
T1 sequence (G3XA59 18-663): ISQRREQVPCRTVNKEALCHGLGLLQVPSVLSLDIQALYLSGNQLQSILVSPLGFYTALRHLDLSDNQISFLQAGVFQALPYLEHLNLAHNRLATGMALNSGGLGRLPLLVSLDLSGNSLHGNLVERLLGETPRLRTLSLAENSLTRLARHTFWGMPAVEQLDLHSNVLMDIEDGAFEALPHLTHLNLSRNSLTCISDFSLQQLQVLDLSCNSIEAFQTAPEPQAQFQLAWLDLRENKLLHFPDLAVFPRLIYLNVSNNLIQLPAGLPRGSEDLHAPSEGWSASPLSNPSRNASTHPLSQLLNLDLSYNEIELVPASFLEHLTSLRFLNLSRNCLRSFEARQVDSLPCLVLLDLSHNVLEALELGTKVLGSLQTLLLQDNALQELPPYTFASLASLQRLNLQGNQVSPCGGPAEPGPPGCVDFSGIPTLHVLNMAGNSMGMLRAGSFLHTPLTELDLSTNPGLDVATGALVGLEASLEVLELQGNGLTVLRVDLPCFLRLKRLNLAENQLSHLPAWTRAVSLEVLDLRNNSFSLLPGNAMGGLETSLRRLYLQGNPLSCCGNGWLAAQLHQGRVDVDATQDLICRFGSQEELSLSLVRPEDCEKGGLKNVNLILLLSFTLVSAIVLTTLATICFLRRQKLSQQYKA

[4] = target: T2, binding of exogenous human LTGFβ-1 (huLTGFβ-1) to surface GARP (Homo sapiens, UniProt Q14392); assay: Blocking of exogenous huLTGF-β binding to surface GARP on Pre-B-hGARP cells; type: cell-based; details: staining for cell surface huLTGF-β
T2 construct: expressed in transfected cells; host or cells: murine Pre-B leukemia line 70Z/3 stably transduced with human GARP (MigR1 retroviral vector)
T2 sequence (Q14392 20-662): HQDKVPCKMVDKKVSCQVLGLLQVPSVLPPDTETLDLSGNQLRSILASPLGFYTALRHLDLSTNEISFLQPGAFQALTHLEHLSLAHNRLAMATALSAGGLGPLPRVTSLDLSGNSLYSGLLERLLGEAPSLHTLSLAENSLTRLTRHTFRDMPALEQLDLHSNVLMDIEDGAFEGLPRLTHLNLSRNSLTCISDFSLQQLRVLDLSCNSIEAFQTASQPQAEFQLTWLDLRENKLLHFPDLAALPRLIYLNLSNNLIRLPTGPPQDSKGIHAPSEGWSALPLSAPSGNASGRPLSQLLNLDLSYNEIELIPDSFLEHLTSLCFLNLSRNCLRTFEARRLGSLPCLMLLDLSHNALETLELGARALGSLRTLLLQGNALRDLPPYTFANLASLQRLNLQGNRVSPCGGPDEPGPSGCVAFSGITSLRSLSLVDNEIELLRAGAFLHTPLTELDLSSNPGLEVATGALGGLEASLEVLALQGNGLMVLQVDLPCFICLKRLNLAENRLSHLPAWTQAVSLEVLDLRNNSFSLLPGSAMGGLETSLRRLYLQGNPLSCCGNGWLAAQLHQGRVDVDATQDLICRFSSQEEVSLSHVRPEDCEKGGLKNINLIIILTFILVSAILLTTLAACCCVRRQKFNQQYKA
Experimental: FIGS. 7A-7E. GARP-specific antibodies block binding of exogenous LTGF-β to GARP and have therapeutic values against a preclinical model of breast cancer. (7A) Surface staining of Pre-B cells stably expressing human GARP (Pre-B-hGARP) by various GARP antibodies. Grey histogram represents staining with isotype control antibody. (7B) Pre-B-hGARP cells were incubated without or with human LTGF-β (huLTGF-β), in the presence of various GARP antibodies or Isotype control antibody, followed by staining for cell surface huLTGF-β. (7C) BALB/c mice were injected with 4T1-huGARP mammary tumors orthotopically, followed by indicated treatment regimen. Data shown are the comparisons of primary tumor weight isolated at 35 days (left panel, combined treatment group) or 30 days (right panel, antibody treatment alone) after inoculation. (7D) Impact of anti-GARP antibody treatment alone (left panel) or in combination with CY on the number of metastatic tumor nodules in the lungs. (7E) Percentage of splenic Tregs and MDSCs in the spleen of mice treated with isotype control antibody or anti-GARP antibody (4D3). Two sample t-tests were used to compare group differences in all panels. *P<0.05. ***P<0.001.

[5] = system: active TGF-β1; assay: Active TGF-β ELISA of purified recombinant GARP-Fc; type: binding; details: GARP-Fc purified from CHO conditioned medium
Experimental: Purification of GARP-Fc. For purification of GARP-Fc protein GARP-Fc, MigR1 vector was transfected into Chinese hamster ovary (CHO) cells using Lipofectamine 2000 (Invitrogen) according to the manufacturer's instructions. Stably transfected clones were selected by blasticidin (5 μg/ml) and protein expression was quantified by SDS-PAGE and Western blot under reducing conditions using anti-mouse GARP and anti-mouse Fc antibody. Recombinant GARP-Fc was purified from cell culture supernatants by protein A affinity chromatography (GE Health).
TGF-β1, GARP, and GARP-TGF-β1 analysis. Active TGF-β1, total TGF-β1, and soluble GARP were measured in human and mouse serum using TGF-β1 and GARP ELISA kits (BioLegend, San Diego, Calif.) according to the manufacturer's protocols. To measure GARP-TGF-β1 complex by ELISA, 96-well plates were coated with TGF-β1 capture antibody according to the manufacturer's instructions (BioLegend, San Diego, Calif.). Samples were incubated for 2 h at room temperature followed by the incubation with the anti-hGARP detection antibody developed in our lab for another 2 h.

[6] = system: NMuMG cells; assay: NMuMG cells stimulated with soluble GARP-Fc (morphology, vimentin Western blot); type: cell-based, murine
Experimental: Protein extraction, immunoprecipitation, and Western blot analysis. Cells were harvested by trypsin-EDTA when necessary, washed in PBS, and lysed on ice in radio-immunoprecipitation assay (RIPA) lysis buffer in the presence of a protease inhibitor cocktail (Sigma-Aldrich). Nuclear-free protein lysate was quantified by Bradford assay (Bio-Rad), and an equal amount of lysate was analysed by SDS-PAGE and Western blot under reducing conditions using anti-mouse GARP (AF6229; R&D system), anti-mouse Vimentin (D21H3; Cell signaling), anti-mouse E-Cadherin (24E10; Cell Signaling) and anti-mouse p-Smad-2/3 (EP823Y; Abcam).
Cell proliferation and in vitro wound healing assay. NMuMG cells (4×10^5) were starved overnight in serum free DMEM (Corning cellgro). Starved cells were cultured at the indicated times with GARP-Fc in 2% FBS DMEM. […] Proliferation was determined with 3-[4,5 dimethylthiazol-2-yl]-2,5-diphenyltetrazolium bromide (MTT), which was added to the cells at the indicated times and incubated for an additional 3 h at 37° C. […] Absorbance at 570 nm was then measured using a plate reader. The cell migration was measured by the wound-healing assay: at 100% confluence, two parallel wounds were made using a 1 ml pipette tip. Migration was assessed after 24, 48 and 72 hours and quantification of wound closure was measured using the ImageJ software (NIH).

[7] = spleen, vs isotype control antibody

Molecule: O=P1(N(CCCl)CCCl)NCCCO1 (stereo not shown) [Cy, cyclophosphamide]
- tumor control without T cell transfer [1]: failed to control tumors

B1: 5C5: second anti-GARP mAb (IgG2a); VH SEQ ID NO: 12, VL SEQ ID NO: 16 (antibody, listed as Homo sapiens, V domains shown)
VH: EVKLVESGGGSVKPGGSLKLSCAASGFTFSNYVMSWVRQTPEKRLEWVATISSGGSYTYYPDSVKGRLTISRDNAKNTLYLQMSSLRSEDTAMYYCARGYDNGDYVMDYWGQGTSVTVSS
VL: DIVLTQSPASLAVSLGQRATISCRASESVDTYGNSFMHWYQQIPGQPPKVLIYRASNLESGIPARFSGSGSRTDFTLTINPVEAGDVATYYCQQTNEHPPTFGGGTKLEIK
- primary tumor growth [2]: modestly inhibited

- cross-reactivity against mouse GARP [3]: low level of cross-reactivity
- block of binding of exogenous human LTGFβ-1 to surface GARP [4]: only clone able to block
B2: 4D3: anti-GARP monoclonal antibody (IgG1); VH SEQ ID NO: 4, VL SEQ ID NO: 8 (antibody, listed as Homo sapiens, V domains shown)
VH: LDVQLQESGPGLVKPSQSLSLTCTVTGYSITSDYAWNWIRQFPGNKLEWMGYISYSGSTSYTPSLKSRISITRDTSKNHFFLQSNSVTTEDTATYYCAKSGGDYYGSSSYWYFDVWGAGTTVTVSS
VL: DIQMTQSPSSLSVSAGEKVTMSCKSSQSLLNSRSQKNYLAWYQQKPGQPPKLLIYRASTRGSGVPDRFTGSGSGTDFTLTISSVQAEDLAVYYCQNDHSYPFTFGSGTKLEIK
- primary tumor growth [2]: modestly inhibited
- splenic Gr1+CD11b+ myeloid-derived suppressor cells (MDSCs) [2, 7]: significant reduction
- splenic Tregs [2, 7]: significant reduction

B3: GARP-Fc: fusion protein consisting of the N-terminal extracellular domain of GARP linked to an Fc domain of IgG (protein)
chain: ISQRREQVPCRTVNKEALCHGLGLLQVPSVLSLDIQALYLSGNQLQSILVSPLGFYTALRHLDLSDNQISFLQAGVFQALPYLEHLNLAHNRLATGMALNSGGLGRLPLLVSLDLSGNSLHGNLVERLLGETPRLRTLSLAENSLTRLARHTFWGMPAVEQLDLHSNVLMDIEDGAFEALPHLTHLNLSRNSLTCISDFSLQQLQVLDLSCNSIEAFQTAPEPQAQFQLAWLDLRENKLLHFPDLAVFPRLIYLNVSNNLIQLPAGLPRGSEDLHAPSEGWSASPLSNPSRNASTHPLSQLLNLDLSYNEIELVPASFLEHLTSLRFLNLSRNCLRSFEARQVDSLPCLVLLDLSHNVLEALELGTKVLGSLQTLLLQDNALQELPPYTFASLASLQRLNLQGNQVSPCGGPAEPGPPGCVDFSGIPTLHVLNMAGNSMGMLRAGSFLHTPLTELDLSTNPGLDVATGALVGLEASLEVLELQGNGLTVLRVDLPCFLRLKRLNLAENQLSHLPAWTRAVSLEVLDLRNNSFSLLPGNAMGGLETSLRRLYLQGNPLSCCGNGWLAAQLHQGRVDVDATQDLICRFGSQEELSLSLVRPEDCEKGGLKNVN
modifications: left off: a dimerising Fc or GST
notes: fusion protein consisting of the N-terminal extracellular domain of GARP linked to an Fc domain of IgG
- association between GARP-Fc and active TGF-β1 [5]: direct association
- vimentin expression ([6]; Western blot, indicated times and increasing doses): time- and dose-dependent upregulation
- cell morphology change ([6]; serum-free medium, within 24 hours): spindle-shaped morphology
